This passage reports Kd results from paper PMC5651841, “The Staphylococcus aureus extracellular matrix protein (Emp) has a fibrous structure and binds to different extracellular matrices” (Scientific Reports, 2017).

The target in assay [1] is fibrinogen (Homo sapiens) (UniProt P02671). Nature of the assay: SPR. The following applies: cited from earlier work.
The target in assay [2] is fibronectin (Homo sapiens) (UniProt P02751). Nature of the assay: SPR. The following applies: cited from earlier work.
Assay [3] deals with vitronectin (Homo sapiens) (UniProt P04004). Nature of the assay: SPR. The settings on record: cited from earlier work.
The next assay deals with vitronectin. Nature of the assay: ELISA; matrix component (0.25 ug/well in 0.1 M Na2CO3, overnight 4 C) immobilised on polystyrene plates; Emp forms 0-1.5 uM added for 1 h at RT, PBST washes; detected with polyclonal anti-Emp IgG and AP-conjugated anti-rabbit IgG; KD from steady-state curves, one-site binding model. (In general: An ELISA detects its analyte on a solid surface through an enzyme-linked reagent.)

In a further assay the target is fibronectin (UniProt P02751 32-2477). The description is as above. The settings on record: both partners purified.
In the next assay the target is T1, collagen I (UniProt P02452 162-1218; P08123 80-1119).
T1 construct: collagen alpha-1(I) chain; collagen alpha-2(I) chain; Named only as collagen I; also called Cn I; Cn l
Described as above. The settings on record: both partners purified.

The next assay has as its target T2, fibrinogen (UniProt P02671-2 20-644; P02675 31-491; P02679-2 27-437).
T2 construct: fibrinogen alpha chain; fibrinogen beta chain; fibrinogen gamma chain; Named only as fibrinogen; also called Fg
T2 sequence (looked up) 1: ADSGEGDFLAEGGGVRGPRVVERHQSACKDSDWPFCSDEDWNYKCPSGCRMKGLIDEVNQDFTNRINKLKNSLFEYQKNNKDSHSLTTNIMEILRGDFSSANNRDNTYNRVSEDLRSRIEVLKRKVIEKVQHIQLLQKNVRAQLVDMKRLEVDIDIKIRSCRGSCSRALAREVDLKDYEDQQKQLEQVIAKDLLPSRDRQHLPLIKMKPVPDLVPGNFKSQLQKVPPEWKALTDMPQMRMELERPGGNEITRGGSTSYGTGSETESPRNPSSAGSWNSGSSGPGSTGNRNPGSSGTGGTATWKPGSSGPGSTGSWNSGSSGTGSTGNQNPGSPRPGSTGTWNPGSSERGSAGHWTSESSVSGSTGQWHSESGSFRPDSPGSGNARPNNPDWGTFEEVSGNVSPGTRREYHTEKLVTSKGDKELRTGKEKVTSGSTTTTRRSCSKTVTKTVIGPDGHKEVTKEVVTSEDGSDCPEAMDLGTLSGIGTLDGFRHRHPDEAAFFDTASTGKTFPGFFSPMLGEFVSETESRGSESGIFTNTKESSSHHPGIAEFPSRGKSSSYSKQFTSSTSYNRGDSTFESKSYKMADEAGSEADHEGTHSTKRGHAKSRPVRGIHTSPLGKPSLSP
T2 sequence (looked up) 2: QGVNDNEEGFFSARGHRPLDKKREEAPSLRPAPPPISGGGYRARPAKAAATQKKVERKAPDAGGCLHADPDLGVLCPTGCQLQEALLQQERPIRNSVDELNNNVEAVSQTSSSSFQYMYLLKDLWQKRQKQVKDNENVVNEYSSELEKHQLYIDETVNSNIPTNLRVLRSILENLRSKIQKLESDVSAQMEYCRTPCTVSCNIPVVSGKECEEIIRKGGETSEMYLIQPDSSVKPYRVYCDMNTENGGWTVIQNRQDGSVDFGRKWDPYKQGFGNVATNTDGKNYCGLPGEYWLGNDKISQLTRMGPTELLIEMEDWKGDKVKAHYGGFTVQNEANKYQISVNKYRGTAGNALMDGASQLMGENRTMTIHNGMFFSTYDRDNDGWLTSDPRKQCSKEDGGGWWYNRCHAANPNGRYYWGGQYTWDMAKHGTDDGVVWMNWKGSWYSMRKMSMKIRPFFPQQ
T2 sequence (looked up) 3: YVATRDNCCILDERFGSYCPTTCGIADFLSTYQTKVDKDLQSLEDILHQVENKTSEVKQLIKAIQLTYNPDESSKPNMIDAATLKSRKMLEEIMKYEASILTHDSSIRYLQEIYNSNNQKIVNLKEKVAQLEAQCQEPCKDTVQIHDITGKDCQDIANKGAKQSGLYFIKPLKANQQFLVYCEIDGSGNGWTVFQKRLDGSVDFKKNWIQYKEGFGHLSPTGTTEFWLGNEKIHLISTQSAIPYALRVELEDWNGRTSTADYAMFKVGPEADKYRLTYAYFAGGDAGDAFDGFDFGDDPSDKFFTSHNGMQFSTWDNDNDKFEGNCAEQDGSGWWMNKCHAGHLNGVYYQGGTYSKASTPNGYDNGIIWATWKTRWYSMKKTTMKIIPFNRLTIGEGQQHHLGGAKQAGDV
The assay is described as above. The following applies: both partners purified.

fibronectin, sequence (P02751 32-2477): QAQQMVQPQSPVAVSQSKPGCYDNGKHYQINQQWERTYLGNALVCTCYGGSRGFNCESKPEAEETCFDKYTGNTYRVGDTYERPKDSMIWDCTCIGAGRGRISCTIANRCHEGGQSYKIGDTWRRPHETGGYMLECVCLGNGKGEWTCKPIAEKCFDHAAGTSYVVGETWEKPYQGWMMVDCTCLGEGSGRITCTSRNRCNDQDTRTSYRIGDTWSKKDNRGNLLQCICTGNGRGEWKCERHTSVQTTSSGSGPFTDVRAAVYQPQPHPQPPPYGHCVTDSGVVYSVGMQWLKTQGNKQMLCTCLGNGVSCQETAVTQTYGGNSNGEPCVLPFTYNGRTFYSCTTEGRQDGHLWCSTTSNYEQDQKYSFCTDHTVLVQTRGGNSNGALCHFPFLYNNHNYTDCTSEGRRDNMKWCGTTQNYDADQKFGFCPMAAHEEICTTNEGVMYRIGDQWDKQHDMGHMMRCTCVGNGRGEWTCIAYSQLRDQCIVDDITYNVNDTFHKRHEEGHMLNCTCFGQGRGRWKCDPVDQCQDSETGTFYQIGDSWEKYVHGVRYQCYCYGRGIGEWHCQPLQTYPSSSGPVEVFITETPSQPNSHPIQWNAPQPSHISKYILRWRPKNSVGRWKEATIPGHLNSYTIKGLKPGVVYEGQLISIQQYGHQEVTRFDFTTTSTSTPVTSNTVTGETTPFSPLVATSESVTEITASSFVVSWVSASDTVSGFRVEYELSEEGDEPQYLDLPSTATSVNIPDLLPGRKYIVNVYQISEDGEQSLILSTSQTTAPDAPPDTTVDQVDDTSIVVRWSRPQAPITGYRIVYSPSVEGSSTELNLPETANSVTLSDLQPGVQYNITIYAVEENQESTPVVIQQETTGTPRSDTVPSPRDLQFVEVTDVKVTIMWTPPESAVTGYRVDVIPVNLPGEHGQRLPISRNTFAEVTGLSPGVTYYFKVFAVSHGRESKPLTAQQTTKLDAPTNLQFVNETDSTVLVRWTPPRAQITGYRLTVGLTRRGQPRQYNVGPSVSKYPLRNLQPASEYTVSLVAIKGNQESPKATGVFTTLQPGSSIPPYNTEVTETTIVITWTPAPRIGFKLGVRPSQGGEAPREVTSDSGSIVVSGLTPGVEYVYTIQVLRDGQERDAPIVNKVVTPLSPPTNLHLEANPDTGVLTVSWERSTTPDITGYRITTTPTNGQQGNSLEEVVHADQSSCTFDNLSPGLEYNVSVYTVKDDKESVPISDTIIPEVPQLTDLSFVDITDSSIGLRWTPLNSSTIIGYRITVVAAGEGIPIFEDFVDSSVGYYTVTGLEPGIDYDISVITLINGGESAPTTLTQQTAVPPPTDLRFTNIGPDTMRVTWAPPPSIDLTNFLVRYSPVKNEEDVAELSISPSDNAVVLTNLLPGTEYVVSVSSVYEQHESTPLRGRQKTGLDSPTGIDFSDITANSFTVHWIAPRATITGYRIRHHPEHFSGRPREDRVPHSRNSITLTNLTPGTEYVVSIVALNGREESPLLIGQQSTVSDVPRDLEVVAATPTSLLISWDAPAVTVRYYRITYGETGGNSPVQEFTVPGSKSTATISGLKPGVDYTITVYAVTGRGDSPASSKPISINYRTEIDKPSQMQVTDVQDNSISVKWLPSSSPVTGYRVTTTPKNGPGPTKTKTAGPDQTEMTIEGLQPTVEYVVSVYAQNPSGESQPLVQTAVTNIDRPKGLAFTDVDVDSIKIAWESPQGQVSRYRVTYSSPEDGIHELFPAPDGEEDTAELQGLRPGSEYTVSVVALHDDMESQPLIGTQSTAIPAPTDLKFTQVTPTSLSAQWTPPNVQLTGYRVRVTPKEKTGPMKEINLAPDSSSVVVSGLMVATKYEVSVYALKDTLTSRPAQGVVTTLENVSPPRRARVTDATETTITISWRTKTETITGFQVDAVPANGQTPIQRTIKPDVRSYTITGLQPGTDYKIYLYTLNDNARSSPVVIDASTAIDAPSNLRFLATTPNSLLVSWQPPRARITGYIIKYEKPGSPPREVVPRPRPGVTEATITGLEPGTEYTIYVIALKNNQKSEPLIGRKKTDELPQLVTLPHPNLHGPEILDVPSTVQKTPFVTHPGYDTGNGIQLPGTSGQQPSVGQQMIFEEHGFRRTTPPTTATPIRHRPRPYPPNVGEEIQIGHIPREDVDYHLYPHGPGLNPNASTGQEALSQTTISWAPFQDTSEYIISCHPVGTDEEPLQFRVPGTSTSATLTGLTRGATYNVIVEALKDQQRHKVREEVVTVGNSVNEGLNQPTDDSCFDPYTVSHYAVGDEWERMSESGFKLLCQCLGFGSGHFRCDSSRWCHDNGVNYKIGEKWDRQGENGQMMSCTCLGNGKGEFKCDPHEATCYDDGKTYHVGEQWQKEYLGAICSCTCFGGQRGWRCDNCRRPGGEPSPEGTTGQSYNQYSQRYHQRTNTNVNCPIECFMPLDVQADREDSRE
vitronectin, sequence (P04004 20-478): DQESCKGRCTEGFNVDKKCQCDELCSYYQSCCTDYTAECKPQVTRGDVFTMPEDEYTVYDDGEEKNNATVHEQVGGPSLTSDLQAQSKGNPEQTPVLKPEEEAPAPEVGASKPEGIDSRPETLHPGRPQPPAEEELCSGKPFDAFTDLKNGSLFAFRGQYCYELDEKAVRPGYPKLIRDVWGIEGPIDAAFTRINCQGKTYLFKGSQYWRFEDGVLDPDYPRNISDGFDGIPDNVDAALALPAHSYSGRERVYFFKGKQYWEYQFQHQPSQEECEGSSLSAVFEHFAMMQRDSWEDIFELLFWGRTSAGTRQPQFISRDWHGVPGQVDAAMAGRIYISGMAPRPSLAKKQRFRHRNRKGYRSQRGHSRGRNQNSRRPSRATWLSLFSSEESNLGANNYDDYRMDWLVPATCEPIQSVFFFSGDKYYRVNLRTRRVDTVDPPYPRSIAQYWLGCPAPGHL
T1 sequence (P02452 162-1218, chain 1 of 2): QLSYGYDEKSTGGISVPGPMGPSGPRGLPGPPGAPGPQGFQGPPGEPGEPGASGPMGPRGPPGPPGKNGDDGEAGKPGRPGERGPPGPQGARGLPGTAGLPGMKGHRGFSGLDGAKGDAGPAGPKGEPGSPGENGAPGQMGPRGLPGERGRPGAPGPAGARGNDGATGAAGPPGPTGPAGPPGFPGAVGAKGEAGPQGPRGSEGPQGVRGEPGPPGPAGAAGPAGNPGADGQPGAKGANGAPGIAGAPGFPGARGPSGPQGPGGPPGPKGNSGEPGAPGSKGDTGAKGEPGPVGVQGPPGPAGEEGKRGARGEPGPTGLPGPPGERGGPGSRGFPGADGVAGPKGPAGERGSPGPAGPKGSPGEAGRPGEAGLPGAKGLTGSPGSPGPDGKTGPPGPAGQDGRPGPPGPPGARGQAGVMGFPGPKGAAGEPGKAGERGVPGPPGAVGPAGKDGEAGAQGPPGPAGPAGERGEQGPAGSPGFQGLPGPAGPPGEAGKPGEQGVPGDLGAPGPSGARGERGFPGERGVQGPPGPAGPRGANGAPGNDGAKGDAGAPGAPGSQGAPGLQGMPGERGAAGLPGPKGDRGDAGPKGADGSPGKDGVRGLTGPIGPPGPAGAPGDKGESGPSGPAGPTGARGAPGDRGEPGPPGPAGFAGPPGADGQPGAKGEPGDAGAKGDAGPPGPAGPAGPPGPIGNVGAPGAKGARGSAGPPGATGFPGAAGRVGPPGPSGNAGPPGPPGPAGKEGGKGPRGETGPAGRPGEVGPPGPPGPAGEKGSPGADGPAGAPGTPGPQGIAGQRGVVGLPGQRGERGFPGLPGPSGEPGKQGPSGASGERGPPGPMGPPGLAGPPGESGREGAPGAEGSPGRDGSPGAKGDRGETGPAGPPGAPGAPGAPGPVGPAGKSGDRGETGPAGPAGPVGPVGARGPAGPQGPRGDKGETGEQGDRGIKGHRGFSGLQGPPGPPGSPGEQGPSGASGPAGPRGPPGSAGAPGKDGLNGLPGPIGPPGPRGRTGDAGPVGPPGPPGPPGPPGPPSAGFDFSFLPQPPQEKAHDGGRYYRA
T1 sequence (P08123 80-1119, chain 2 of 2): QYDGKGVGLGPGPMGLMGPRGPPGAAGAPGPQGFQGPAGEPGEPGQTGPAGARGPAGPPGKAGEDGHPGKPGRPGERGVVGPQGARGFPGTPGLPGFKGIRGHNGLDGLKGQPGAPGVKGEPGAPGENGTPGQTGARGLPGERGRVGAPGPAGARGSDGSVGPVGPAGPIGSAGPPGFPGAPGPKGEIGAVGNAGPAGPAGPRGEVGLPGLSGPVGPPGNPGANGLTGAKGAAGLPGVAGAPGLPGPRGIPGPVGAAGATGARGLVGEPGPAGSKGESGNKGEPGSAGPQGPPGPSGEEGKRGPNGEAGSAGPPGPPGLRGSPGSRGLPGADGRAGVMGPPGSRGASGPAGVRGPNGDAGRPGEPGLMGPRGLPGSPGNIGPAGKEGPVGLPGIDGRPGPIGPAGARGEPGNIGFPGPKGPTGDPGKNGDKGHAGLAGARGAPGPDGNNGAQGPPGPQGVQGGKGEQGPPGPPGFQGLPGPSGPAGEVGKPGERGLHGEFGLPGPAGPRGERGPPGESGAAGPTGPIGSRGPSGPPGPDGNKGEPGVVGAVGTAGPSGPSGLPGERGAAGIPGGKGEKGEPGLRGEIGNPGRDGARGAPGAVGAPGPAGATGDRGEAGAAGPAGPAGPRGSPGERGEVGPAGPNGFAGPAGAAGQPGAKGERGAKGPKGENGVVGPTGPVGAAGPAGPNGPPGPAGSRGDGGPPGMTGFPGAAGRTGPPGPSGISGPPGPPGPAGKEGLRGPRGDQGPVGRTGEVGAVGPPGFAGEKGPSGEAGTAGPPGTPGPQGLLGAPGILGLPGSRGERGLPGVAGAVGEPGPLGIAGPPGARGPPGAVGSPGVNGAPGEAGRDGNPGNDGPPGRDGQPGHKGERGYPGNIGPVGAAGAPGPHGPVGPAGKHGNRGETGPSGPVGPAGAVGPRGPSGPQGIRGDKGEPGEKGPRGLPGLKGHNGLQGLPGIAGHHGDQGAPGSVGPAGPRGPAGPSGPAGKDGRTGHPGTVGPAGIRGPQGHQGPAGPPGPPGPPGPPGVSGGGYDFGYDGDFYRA
vitronectin (Homo sapiens), sequence (P04004 399-478): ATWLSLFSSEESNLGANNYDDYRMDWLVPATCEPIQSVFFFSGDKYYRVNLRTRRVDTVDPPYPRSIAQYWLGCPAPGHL
fibronectin (Homo sapiens), sequence (P02751 32-2477): as the sequence (P02751 32-2477) above

For the molecule Emp (from UniProt Q7A6P4), the results for the equilibrium dissociation constant (Kd) in assay [1], in assay [2] and in assay [3] were 91 nM, 21 nM and 0.122 nM, respectively.

B1: Emp1+2 (combination of Emp1 and Emp2) (domain or fragment)
chain: ASVTESVDKKFVVPESGINKIIPAYDEFKNSPKVNVSNLTDNKNFVASEDKLNKIADSSAASKIVDKNFVVPESKLGNIVPEYKEINNRVNVATNNPASQQVDKHFVAKGPEVNRFITQNKVNHHFITTQTHYKKVITSYKSTHVHKHVNHAKDSINKHFIVKPSESPRYTHPSQSLIIKHHFAVPGYHAH
notes: limits worked out from these positions and count on the precursor; source: E. coli (TG1 transformants, plasmid pQemp1 + 2), purified (Ni-NTA in 8 M urea, solubilized by stepwise dialysis)
As for B1, the dissociation constant (Kd) was found to be 9 nM in the assay with vitronectin, 3 ± 2 nM in the assay with fibronectin, 31 ± 5 nM in the assay with collagen I and 14 ± 3 nM in the assay with fibrinogen.

B2: Emp2 (central fragment of Emp) (domain or fragment)
chain: YKEINNRVNVATNNPASQQVDKHFVAKGPEVNRFITQNKVNHHFITTQTHYKKVITSYKSTHVHKHVNHAKDSINKHFIVKPSESPRYTHPSQSLIIKHHFAVPGYHAH
notes: primers EmpFor2UA (+322) and EmpRev2UA (+648) relative to ATG; limits worked out from these positions and count on the precursor; source: E. coli (TG1 transformants, plasmid pQemp2), purified (Ni-NTA in 8 M urea, solubilized by stepwise dialysis)
Regarding B2, the dissociation constant (Kd) with vitronectin came to 18 nM; with fibronectin it was 8 ± 3 nM; in the assay with collagen I, 13 ± 6 nM; with fibrinogen, 9 ± 2.6 nM.

B3: Emp2+3 (combination of Emp2 and Emp3; N-truncated Emp) (domain or fragment)
chain: YKEINNRVNVATNNPASQQVDKHFVAKGPEVNRFITQNKVNHHFITTQTHYKKVITSYKSTHVHKHVNHAKDSINKHFIVKPSESPRYTHPSQSLIIKHHFAVPGYHAHKFVTPGHASIKINHFCVVPQINSFKVIPPYGHNSHRMHVPSFQNNTTATHQNAKVNKAYDYKYFYSYKVVKGVKKYFSFSQSNGYKIGKPSLNIKNVNYQYAVPSYSPTHYVPEFKGSLPAPRV
notes: limits worked out from these positions and count on the precursor; source: E. coli (TG1 transformants, plasmid pQemp2 + 3), purified (Ni-NTA in 8 M urea, solubilized by stepwise dialysis)
B3: the equilibrium dissociation constant (Kd) with vitronectin turned out to be 200 nM; with fibronectin, 404 ± 95 nM; with collagen I, 207 ± 44 nM; with fibrinogen, 556 ± 115 nM.

B4: Emp3 (C-terminal fragment of Emp) (domain or fragment)
chain: FAVPGYHAHKFVTPGHASIKINHFCVVPQINSFKVIPPYGHNSHRMHVPSFQNNTTATHQNAKVNKAYDYKYFYSYKVVKGVKKYFSFSQSNGYKIGKPSLNIKNVNYQYAVPSYSPTHYVPEFKGSLPAPRV
notes: primers EmpFor3UA (+622) and EmpRev3UA (+1024, holds the stop codon) relative to ATG; limits worked out from these positions and count on the precursor; source: E. coli (TG1 transformants, plasmid pQemp3), purified (Ni-NTA in 8 M urea, solubilized by stepwise dialysis)
B4: the dissociation constant (Kd) was found to be 449 nM with vitronectin, 311 ± 79 nM with fibronectin, 32 ± 7 nM with collagen I and 756 ± 224 nM in the assay with fibrinogen.

B5: full-length Emp protein (extracellular matrix protein Emp of Staphylococcus aureus, without the signal peptide) (natural protein)
chain: SVTESVDKKFVVPESGINKIIPAYDEFKNSPKVNVSNLTDNKNFVASEDKLNKIADSSAASKIVDKNFVVPESKLGNIVPEYKEINNRVNVATNNPASQQVDKHFVAKGPEVNRFITQNKVNHHFITTQTHYKKVITSYKSTHVHKHVNHAKDSINKHFIVKPSESPRYTHPSQSLIIKHHFAVPGYHAHKFVTPGHASIKINHFCVVPQINSFKVIPPYGHNSHRMHVPSFQNNTTATHQNAKVNKAYDYKYFYSYKVVKGVKKYFSFSQSNGYKIGKPSLNIKNVNYQYAVPSYSPTHYVPEFKGSLPAPRV
notes: gene of 1,023 nucleotides; numbers count on: the protein without signal peptide and without His-tag; The vector (printed pQ30-UA, Qiagen) probably adds an N-terminal His6 (surmised); Primer EmpFor1UA starts at nt +76 (codon 26), which would give 315 residues against the printed 314; also called EmpFL; source: E. coli (TG1 transformants, plasmid pQemp), purified (Ni-NTA in 8 M urea, solubilized by …)
Regarding B5, the equilibrium dissociation constant (Kd) worked out at 34 nM with vitronectin, 43 ± 11 nM in the assay with fibronectin, 27 ± 5 nM in the assay with collagen I and 70 ± 1 nM with fibrinogen.

One may read the Kd as a measure of binding affinity in units of concentration.
